According to patent US20140179896A1 (published 2014):
Residue numbers refer to the chain shown, from its start.

B1: B6 (designed binder)
chain: EVVAATPTSLLISWRHPHFPTRYYRITYGETGGNSPVQEFTVPLQPPTATISGLKPGVDYTITGYAVTLERNGKELMTPISINYRT
notes: 10Fn3 clone, Del 1-8
B2: B7, B8 (designed binder)
chain: B1 chain with L69V, K74R, M77L
notes: 10Fn3 clone, Del 1-8
B3: B10 (designed binder)
chain: B1 chain with K74R, M77N
notes: 10Fn3 clone, Del 1-8
B4: B12 (designed binder)
chain: B1 chain with L69V, K74R, M77R
notes: 10Fn3 clone, Del 1-8
B5: C1 (designed binder)
chain: B1 chain with L69Q, K74R, M77R
notes: 10Fn3 clone, Del 1-8
B6: C2 (designed binder)
chain: B1 chain with L69V, K74R, M77L, T78W
notes: 10Fn3 clone, Del 1-8
B7: C3 (designed binder)
chain: B1 chain with K74R, T78I
notes: 10Fn3 clone, Del 1-8
B8: C6 (designed binder)
chain: B1 chain with K74R, E75V
notes: 10Fn3 clone, Del 1-8
B9: C7 (designed binder)
chain: B1 chain with L69H, K74R, E75V
notes: 10Fn3 clone, Del 1-8
B10: C8 (designed binder)
chain: B1 chain with K74R, E75V, M77I
notes: 10Fn3 clone, Del 1-8
B11: C9 (designed binder)
chain: B1 chain with L69V, K74L, E75V
notes: 10Fn3 clone, Del 1-8
B12: C10 (designed binder)
chain: B1 chain with L69V, K74R, E75V, M77I, T78I
notes: 10Fn3 clone, Del 1-8
B13: C11 (designed binder)
chain: B1 chain with L69V, K74R, E75V, M77I, T78V
notes: 10Fn3 clone, Del 1-8
B14: C12 (designed binder)
chain: B1 chain with L69V, K74R, E75V, M77S, T78V
notes: 10Fn3 clone, Del 1-8
B15: D1 (designed binder)
chain: B1 chain with L69V, K74R, E75M
notes: 10Fn3 clone, Del 1-8
B16: D2 (designed binder)
chain: B1 chain with L69V, K74R, E75N
notes: 10Fn3 clone, Del 1-8
B17: D3 (designed binder)
chain: B1 chain with L69V, K74R, E75A
notes: 10Fn3 clone, Del 1-8
B18: D4 (designed binder)
chain: B1 chain with L69V, K74R, E75T, M77F
notes: 10Fn3 clone, Del 1-8
B19: D5 (designed binder)
chain: B1 chain with L69V, K74R, E75T, T78M
notes: 10Fn3 clone, Del 1-8
B20: D6 (designed binder)
chain: B1 chain with L69V, E75T
notes: 10Fn3 clone, Del 1-8
B21: D7 (designed binder)
chain: B1 chain with L69V, E75V
notes: 10Fn3 clone, Del 1-8
B22: D9 (designed binder)
chain: B1 chain with L69E, K74R, E75V, M77F
notes: 10Fn3 clone, Del 1-8
B23: D11 (designed binder)
chain: B1 chain with L69V, K74H, E75K, M77F
notes: 10Fn3 clone, Del 1-8
B24: D12 (designed binder)
chain: B1 chain with L69V, K74R, E75K
notes: 10Fn3 clone, Del 1-8
B25: E8 (designed binder)
chain: B1 chain with L69E, R71W, K74R, E75V
notes: 10Fn3 clone, Del 1-8
B26: E10 (designed binder)
chain: B1 chain with L69E, E70G, K74R, M77F, T78I
B27: E12 (designed binder)
chain: B1 chain with L69F, E70A, N72D, K74H, L76I, M77L
notes: 10Fn3 clone, Del 1-8
B28: E13 (designed binder)
chain: B1 chain with R71Q, K74R
notes: 10Fn3 clone, Del 1-8
B29: E14 (designed binder)
chain: B1 chain with K74Q, E75V, M77F
notes: 10Fn3 clone, Del 1-8
B30: E15 (designed binder)
chain: B1 chain with R71P, K74R, E75Y, T78V
notes: 10Fn3 clone, Del 1-8
B31: E16 (designed binder)
chain: B1 chain with L69V, R71E, K74R, E75Q
notes: 10Fn3 clone, Del 1-8
B32: E17 (designed binder)
chain: B1 chain with L69V, R71E, K74R, E75V, M77N
notes: 10Fn3 clone, Del 1-8
B33: E20 (designed binder)
chain: B1 chain with L69V, K74Q, E75V, M77Y
notes: 10Fn3 clone, Del 1-8
B34: E21 (designed binder)
chain: B1 chain with L69W, E70G, R71Y, N72K, G73D, K74H, M77L, T78I
notes: 10Fn3 clone, Del 1-8
B35: E22 (designed binder)
chain: B1 chain with E70G, G73D, K74R, M77L
notes: 10Fn3 clone, Del 1-8
B36: E24 (designed binder)
chain: B1 chain with L69V, G73D, K74R, E75V, M77F
notes: 10Fn3 clone, Del 1-8
B37: E27 (designed binder)
chain: B1 chain with L69V, K74H, E75T
notes: 10Fn3 clone, Del 1-8
B38: EGE1 (designed binder)
chain: B1 chain with K74R, E75K
notes: 10Fn3 clone, Del 1-8
B39: EGE2 (designed binder)
chain: B1 chain with L69V, K74R, E75Q
notes: 10Fn3 clone, Del 1-8
B40: EGE3 (designed binder)
chain: B1 chain with L69V, K74R, E75Q, M77Y
notes: 10Fn3 clone, Del 1-8
B41: EGE4 (designed binder)
chain: B1 chain with L69V, K74R, E75V, M77N
notes: 10Fn3 clone, Del 1-8
B42: EGE5 (designed binder)
chain: B1 chain with K74R, E75V, M77N
notes: 10Fn3 clone, Del 1-8
B43: EGE6 (designed binder)
chain: B1 chain with K74R, E75L, M77N
notes: 10Fn3 clone, Del 1-8
B44: EGE7 (designed binder)
chain: B1 chain with G73D, K74R, E75V, M77L
notes: 10Fn3 clone, Del 1-8

Legend:
[1] = target: T1, human vascular endothelial growth factor receptor-2 Fc chimera (KDR-Fc) (human, UniProt P35968 20-764); experiment: radioactive equilibrium binding assay, 1 nM KDR-Fc, % of input bound
T1 construct: range 1-764; also called human VEGFR-2; not shown: human IgG1 Fc
Procedure: (§1) To prepare ³⁵S-labeled binding proteins for analysis, mRNA was prepared as described above for RNA-protein fusion production but the linker ligation step was omitted. The mRNA was expressed using rabbit reticulocyte lysate translation kit (Ambion) in the presence of ³⁵S-labeled Met at 30° C. for 1 hour. Expressed protein was purified on M2-agarose Flag beads (Sigma) as described above. This procedure produced the encoded protein without the nucleic acid tail. In a direct binding assay, VEGF-R2-Fc fusions in concentrations ranging from 0 to 200 nM were added to a constant concentration of the purified protein (0.2 or 0.5 nM) and incubated at 30° C. for 1 hour in buffer B. The receptor-binder complexes were captured using Protein A magnetic beads for another 10 minutes at room temperature using a Kingfisher™ The beads were washed with six reaction volumes of buffer B. The protein was eluted from the beads with 100 μL of 0.1 M KOH. […] of the reaction mixture and elution were dried onto a LumaPlate-96 (Packard) and the amount of ³⁵S on the plate was measured using a TopCount NXT instrument (Packard). The amount of fibronectin-based scaffold protein bound to the target was estimated as a percent of radioactivity eluted from Protein A magnetic beads compare to radioactivity in the reaction mixture. Nonspecific binding of fibronectin-based scaffold proteins to the beads was determined by measuring binding in the absence of KDR-Fc and represented less than 1-2% of the input. Specific binding was obtained through subtraction of nonspecific binding from total binding. Data was analyzed using the GraphPad Prizm software (GraphPad Software, Inc, San Diego, Calif.), fitted using a one site, non-linear binding equation.

[2] = target: T2, mouse vascular endothelial growth factor receptor-2 Fc chimera (Flk-1-Fc) (mouse, UniProt P35918 20-762); experiment: radioactive equilibrium binding assay, 1 nM Flk-1-Fc, % of input bound
T2 construct: Bought from R&D Systems; also called mouse VEGFR-2; not shown: Fc part of the purchased chimera, not specified
Procedure: as §1

T1 sequence (P35968 20-764 limits assumed, change not shown, form in doubt): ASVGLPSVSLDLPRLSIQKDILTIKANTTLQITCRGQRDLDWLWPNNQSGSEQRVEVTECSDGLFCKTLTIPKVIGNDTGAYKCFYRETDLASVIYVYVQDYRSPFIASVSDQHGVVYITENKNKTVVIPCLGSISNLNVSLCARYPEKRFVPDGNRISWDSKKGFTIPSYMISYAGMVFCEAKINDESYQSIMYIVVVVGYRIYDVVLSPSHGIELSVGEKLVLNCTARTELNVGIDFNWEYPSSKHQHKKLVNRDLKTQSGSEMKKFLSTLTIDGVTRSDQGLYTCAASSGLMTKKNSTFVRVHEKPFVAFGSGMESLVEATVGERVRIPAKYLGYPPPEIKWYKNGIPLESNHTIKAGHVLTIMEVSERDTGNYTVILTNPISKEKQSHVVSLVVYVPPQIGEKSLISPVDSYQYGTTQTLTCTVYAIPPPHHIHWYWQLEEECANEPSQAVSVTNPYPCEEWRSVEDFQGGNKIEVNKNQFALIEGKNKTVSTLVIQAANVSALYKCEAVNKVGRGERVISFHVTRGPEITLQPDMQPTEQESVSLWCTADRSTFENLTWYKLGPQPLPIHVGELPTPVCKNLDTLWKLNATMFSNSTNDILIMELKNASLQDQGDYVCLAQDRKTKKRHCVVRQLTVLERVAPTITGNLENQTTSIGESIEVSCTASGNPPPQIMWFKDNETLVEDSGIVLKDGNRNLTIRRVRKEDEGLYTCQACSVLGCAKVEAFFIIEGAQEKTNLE
T2 sequence (P35918 20-762, change not shown): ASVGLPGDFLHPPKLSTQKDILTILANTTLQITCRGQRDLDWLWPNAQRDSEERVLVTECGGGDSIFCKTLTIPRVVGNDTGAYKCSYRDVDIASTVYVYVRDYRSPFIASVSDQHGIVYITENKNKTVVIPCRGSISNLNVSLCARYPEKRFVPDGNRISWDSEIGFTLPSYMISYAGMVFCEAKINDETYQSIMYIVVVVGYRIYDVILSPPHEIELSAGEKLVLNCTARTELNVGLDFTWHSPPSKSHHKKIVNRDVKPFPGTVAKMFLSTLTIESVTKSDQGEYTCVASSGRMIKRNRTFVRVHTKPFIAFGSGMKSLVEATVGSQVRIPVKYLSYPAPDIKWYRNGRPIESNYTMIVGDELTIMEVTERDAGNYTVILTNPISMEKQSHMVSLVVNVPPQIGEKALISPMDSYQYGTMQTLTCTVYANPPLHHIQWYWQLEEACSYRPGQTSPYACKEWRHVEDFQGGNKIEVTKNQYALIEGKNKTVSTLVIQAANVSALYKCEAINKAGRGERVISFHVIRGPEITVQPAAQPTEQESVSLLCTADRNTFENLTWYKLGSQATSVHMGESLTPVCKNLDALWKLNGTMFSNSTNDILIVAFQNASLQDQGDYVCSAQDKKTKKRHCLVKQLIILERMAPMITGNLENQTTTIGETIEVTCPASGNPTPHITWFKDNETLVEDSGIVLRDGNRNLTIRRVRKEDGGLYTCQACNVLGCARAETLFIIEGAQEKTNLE

| Binder | Binding to 1 nM KDR, % [1] | Binding to 1 nM Flk-1, % [2] |
| --- | --- | --- |
| B1 | 23% | 11% |
| B2 | 18% | 10% |
| B3 | 15% | 23% |
| B4 | 29% | 24% |
| B5 | 28% | 13% |
| B6 | 40% | 16% |
| B7 | 31% | 17% |
| B8 | 36% | 49% |
| B9 | 32% | 40% |
| B10 | 30% | 34% |
| B11 | 33% | 7% |
| B12 | 24% | 17% |
| B13 | 19% | 21% |
| B14 | 24% | 20% |
| B15 | 38% | 38% |
| B16 | 35% | 30% |
| B17 | 36% | 30% |
| B18 | 27% | 44% |
| B19 | 38% | 23% |
| B20 | 32% | 30% |
| B21 | 39% | 27% |
| B22 | 31% | 40% |

| Binder | Binding to 1 nM KDR, % [1] | Binding to 1 nM Flk-1, % [2] |
| --- | --- | --- |
| B23 | 24% | 3% |
| B24 | 46% | 47% |
| B25 | 51% | 10% |
| B26 | 53% | 3% |
| B27 | 36% | 1% |
| B28 | 38% | 1% |
| B29 | 33% | 11% |
| B30 | 52% | 2% |
| B31 | 35% | 0% |
| B32 | 32% | 10% |
| B33 | 43% | 11% |
| B34 | 47% | 1% |
| B35 | 45% | 3% |
| B36 | 24% | 29% |
| B37 | 37% | 9% |
| B38 | 30% | 29% |
| B39 | 42% | 33% |
| B40 | 34% | 38% |
| B41 | 26% | 41% |
| B42 | 32% | 47% |
| B43 | 33% | 40% |
| B44 | 31% | 30% |
